Reference: patent US4010251A, “Scanning agent composition and use in imaging liver and for biliary function” (priority 1974, dated 1977)

Assays:
liver = settings: human, in vivo; cited from earlier work
rat and rabbit liver = assay: In vivo animal hepatic imaging after intravenous injection of labelled compounds
Description: Adult male Wistur rats weighing about 400g and male New Zealand rabbits weighing about 2.5kg. were used in the in vivo animal imaging studies. After intravenous injection of the labelled compounds (100-400uCi) as a bolus into experimental animals, hepatic imaging was performed on a PhoGamma III scintillation camera (Nuclear Chicago Corp., Des Plaines, Ill.) using a 140keV parallel collimator. Images were recorded on Polaroid type 55 film.

[1] = in vivo; cited from earlier work

O=C(O)c1c(Cl)c(Cl)c(Cl)c(Cl)c1-c1c2cc(I)c(=O)c(I)c-2oc2c(I)c(O)c(I)cc12 [^131 I-rose bengal]
20:5 minutes ratio of blood ^131 I-rose bengal concentrations (liver): 0.39-0.51
time by which biliary excretion has begun (liver): ≤ 20 min
time for maximal concentration in the liver (liver): ~30 min

B1: Radiolabelled DTBG: Radiolabelled desialylated thyroxine-binding globulin; radiolabel not specified at that place (protein, UniProt P05543 21-415, looked up)
Thyroxine-binding globulin: ASPEGKVTACHSSQPNATLYKMSSINADFAFNLYRRFTVETPDKNIFFSPVSISAALVMLSFGACCSTQTEIVETLGFNLTDTPMVEIQHGFQHLICSLNFPKKELELQIGNALFIGKHLKPLAKFLNDVKTLYETEVFSTDFSNISAAKQEINSHVEMQTKGKVVGLIQDLKPNTIMVLVNYIHFKAQWANPFDPSKTEDSSSFLIDKTTTVQVPMMHQMEQYYHLVDMELNCTVLQMDYSKNALALFVLPKEGQMESVEAAMSSKTLKKWNRLLQKGWVDLFVPKFSISATYDLGATLLKMGIQHAYSENADFSGLTEDNGLKLSNAAHKAVLHIGEKGTEAAAVPEVELSDQPENTFLHPIIQIDRSFMLLILERSTRSILFLGKVVNPTEA
modifications: desialylated; radiolabelled
notes: radiolabel not specified at that place
liver imaging after intravenous injection (rat and rabbit liver; scintillation camera): effective as a liver imaging agent

B2: DTBG: desialylated thyroxine-binding globulin from pooled human serum (protein, UniProt P05543 21-415, looked up)
Thyroxine-binding globulin: B1 Thyroxine-binding globulin
modifications: desialylated
half-life in the circulation [1]: 4 to 5 min

B3: ^131 I-DTBG: ^131 I labelled desialylated thyroxine-binding globulin (protein, UniProt P05543 21-415, looked up)
Thyroxine-binding globulin: B1 Thyroxine-binding globulin
modifications: 131I label; desialylated
clearance of the iodine label by the kidneys noted, time post-injection (rat and rabbit liver; in vivo): 20 or 30 minutes
uptake and concentration in the liver (rat and rabbit liver; in vivo): rapidly taken up by the hepatocytes
